Assays:
[1] = target: HLA-A*24:02 molecule (product of HLA-A*24:02 gene) (human); assay: flow cytometry, acid-stripped C1R-A24 cells + β2m, peptide dilution series, 17A12 staining
[2] = target: HLA-A*02:06 molecule (product of HLA-A*02:06 gene) (human); assay: flow cytometry, RA2.6 cells, peptide dilution series, BB7.2 staining
[3] = target: HLA-A*02:01 molecule (product of HLA-A*02:01 gene) (human); assay: flow cytometry, T2 cells + β2m, peptide dilution series, BB7.2 staining

| Binder | Binding Experiment Data (log Kd) [1] | Binding Experiment Data (log Kd) [2] | Binding Experiment Data (log Kd) [3] |
| --- | --- | --- | --- |
| FYPEEISSM (modifications not checked) [peptide … (SEQ ID NO: 3)] | -7.66 log Kd | – | – |
| YGAAVQAAI (modifications not checked) [peptide … (SEQ ID NO: 7)] | -5.5 log Kd | -5.37 log Kd | -4.9 log Kd |
| LLLDVAPLS (modifications not checked) [peptide … (SEQ ID NO: 8)] | – | -6.17 log Kd | -6.06 log Kd |
| VLVGGSTRI (modifications not checked) [peptide … (SEQ ID NO: 5)] | -6.17 log Kd | -5.07 log Kd | -4.86 log Kd |
| AMTKDNNLL (modifications not checked) [peptide … (SEQ ID NO: 9)] | -5.49 log Kd | -4.28 log Kd | -5.56 log Kd |
| KLLQDFFNG (modifications not checked) [peptide … (SEQ ID NO: 4)] | – | -5.27 log Kd | -4.96 log Kd |
| TFDVSILTI (modifications not checked) [peptide … (SEQ ID NO: 2)] | -6.24 log Kd | – | – |
| MVLTKMKEI (modifications not checked) [peptide … (SEQ ID NO: 6)] | -5.82 log Kd | -5.53 log Kd | -4.59 log Kd |

Further lines, results first:

| Binding Experiment Data (log Kd) [1] | Binding Experiment Data (log Kd) [2] | Binding Experiment Data (log Kd) [3] | Binder |
| --- | --- | --- | --- |
| – | -6.42 log Kd | -5.91 log Kd | NQPGVLIQV (modifications not checked) [peptide … (SEQ ID NO: 14)] |
| – | -5.02 log Kd | -5.09 log Kd | YAFNMKSAV (modifications not checked) [peptide … (SEQ ID NO: 13)] |
| – | -5.18 log Kd | -4.56 log Kd | NLLGRFELS (modifications not checked) [peptide … (SEQ ID NO: 11)] |
| – | -6.45 log Kd | -6.15 log Kd | AQIHDLVLV (modifications not checked) [peptide … (SEQ ID NO: 12)] |
| -5.21 log Kd | -5.58 log Kd | -4.33 log Kd | ITRARFEEL (modifications not checked) [peptide … (SEQ ID NO: 10)] |
| -4.37 log Kd | -5.59 log Kd | -4.76 log Kd | SVTNAVITV (modifications not checked) [peptide … (SEQ ID NO: 15)] |

From patent publication US20180169199A1
